Patent publication US20190241648A1 (STATEN BIOTECHNOLOGY B V, published 2019)
Ends that are not written are not given here.

Key:
Assay in all cases: peptide microarray
[1] = target: T1, ApoC3 peptide … W42N (human, not fully specified (bridges); also: cyclic constrained)
T1 peptide: ARGNVTDGFSSLK
Text: (§1) Amino acids G41 and G46 were highly conserved; substitution of G41 by E, N or Q caused a decrease of spot intensities by ˜70% or higher, whereas exchange of G46 by N was hardly tolerated and resulting in 90% reduced spot intensities. […] Amino acid positions V43, D45 and K51 were also well conserved with a clear preference for the wild type amino acids and a certain tolerance particularly for conservative exchanges by Y, F and I (V43), A, E and K (D45) as well as by R (K51). […] Replacement of V43 by Y, however, increased spot intensity by two fold. Amino acid positions W42 and 48S were poorly conserved or even variable; both positions were susceptible for only a number of amino acid exchanges, and exchange by F, S and T (W42) or by E (S48) even caused a two- to three-fold increase of spot intensity. Amino acid positions A39 and R40 were variable.
(§2) Pre: staining of one of the ApoC3 peptide microarrays was done with the secondary antibody goat anti-human IgG (Fe) DyLight680 (1:5000) and control antibody mouse monoclonal anti-HA (12CA5) DyLight800 (1:2000) to investigate background interactions of the secondary antibody with the antigen-derived peptides that could interfere with the main assays. Subsequent incubation of other ApoC3 peptide microarrays with antibody samples was followed by staining with secondary and control antibodies as well as read-out at scanning intensities of 7/7 (red/green). The additional HA peptides framing the peptide arrays were stained as internal quality control to confirm the assay quality and the peptide microarray integrity.

[2] = target: T2, ApoC3 peptide … K51M (human, not fully specified; cyclic constrained)
T2 peptide: ARGWVTDGFSSLM
Text: as §1, §2

[3] = target: T3, ApoC3 peptide … K51Y (human, not fully specified; cyclic constrained)
T3 peptide: ARGWVTDGFSSLY
Text: as §1, §2

[4] = target: T4, ApoC3 peptide … W42C (human, not fully specified (bridges); also: cyclic constrained)
T4 peptide: ARGCVTDGFSSLK
Text: as §1, §2

[5] = target: T5, ApoC3 peptide … T44C (human, not fully specified (bridges); also: cyclic constrained)
T5 peptide: ARGWVCDGFSSLK
Text: as §1, §2

[6] = target: T6, ApoC3 peptide … F47H (human, not fully specified (bridges); also: cyclic constrained)
T6 peptide: ARGWVTDGHSSLK
Text: as §1, §2

[7] = target: T7, ApoC3 peptide … S49W (human, not fully specified (bridges); also: cyclic constrained)
T7 peptide: ARGWVTDGFSWLK
Text: as §1, §2

[8] = target: T8, ApoC3 peptide … F47K (human, not fully specified (bridges); also: cyclic constrained)
T8 peptide: ARGWVTDGKSSLK
Text: as §1, §2

[9] = target: T9, ApoC3 peptide … W42F (human, not fully specified (bridges); also: cyclic constrained)
T9 peptide: ARGFVTDGFSSLK
Text: as §1, §2

[10] = target: T10, ApoC3 peptide … W42P (human, not fully specified (bridges); also: cyclic constrained)
T10 peptide: ARGPVTDGFSSLK
Text: as §1, §2

[11] = target: T11, ApoC3 peptide … F47Y (human, also: cyclic constrained)
T11 peptide: ARGWVTDGYSSLK
Text: as §1, §2

[12] = target: T12, ApoC3 peptide … D45M (human, cyclic constrained)
T12 peptide: ARGWVTMGFSSLK
Text: as §1, §2

[13] = target: T13, ApoC3 peptide … V43D (human, not fully specified; cyclic constrained)
T13 peptide: ARGWDTDGFSSLK
Text: as §1, §2

[14] = target: T14, ApoC3 peptide … L50K (human, not fully specified; cyclic constrained)
T14 peptide: ARGWVTDGFSSKK
Text: as §1, §2

[15] = target: T15, ApoC3 peptide … G41I (human, also: cyclic constrained)
T15 peptide: ARIWVTDGFSSLK
Text: as §1, §2

[16] = target: T16, ApoC3 peptide … A39D (human, cyclic constrained)
T16 peptide: DRGWVTDGFSSLK
Text: as §1, §2

[17] = target: T17, ApoC3 peptide … G41E (human, also: cyclic constrained)
T17 peptide: AREWVTDGFSSLK
Text: as §1, §2

[18] = target: T18, ApoC3 peptide … S48L (human, not fully specified (bridges); also: cyclic constrained)
T18 peptide: ARGWVTDGFLSLK
Text: as §1, §2

[19] = target: T19, ApoC3 peptide … D45I (human, cyclic constrained)
T19 peptide: ARGWVTIGFSSLK
Text: as §1, §2

[20] = target: T20, ApoC3 peptide … W42H (human, not fully specified (bridges); also: cyclic constrained)
T20 peptide: ARGHVTDGFSSLK
Text: as §1, §2

[21] = target: T21, ApoC3 peptide … F47I (human, not fully specified (bridges); also: cyclic constrained)
T21 peptide: ARGWVTDGISSLK
Text: as §1, §2

[22] = target: T22, ApoC3 peptide … A39G (human, cyclic constrained)
T22 peptide: GRGWVTDGFSSLK
Text: as §1, §2

[23] = target: T23, ApoC3 peptide … R40W (human, thioether (positions not given here); also: cyclic constrained)
T23 peptide: AWGWVTDGFSSLK
Text: as §1, §2

[24] = target: T24, ApoC3 peptide … T44R (human, not fully specified (bridges); also: cyclic constrained)
T24 peptide: ARGWVRDGFSSLK
Text: as §1, §2

[25] = target: T25, ApoC3 peptide … G41Y (human, also: cyclic constrained)
T25 peptide: ARYWVTDGFSSLK
Text: as §1, §2

[26] = target: T26, ApoC3 peptide … G46S (human, thioether (positions not given here); also: cyclic constrained)
T26 peptide: ARGWVTDSFSSLK
Text: as §1, §2

[27] = target: T27, ApoC3 peptide … A39V (human, not fully specified (bridges); also: cyclic constrained)
T27 peptide: VRGWVTDGFSSLK
Text: as §1, §2

[28] = target: T28, ApoC3 peptide … T44K (human, not fully specified (bridges); also: cyclic constrained)
T28 peptide: ARGWVKDGFSSLK
Text: as §1, §2

[29] = target: T29, ApoC3 peptide … K51S (human, not fully specified; cyclic constrained)
T29 peptide: ARGWVTDGFSSLS
Text: as §1, §2

[30] = target: T30, ApoC3 peptide … L50I (human, not fully specified; cyclic constrained)
T30 peptide: ARGWVTDGFSSIK
Text: as §1, §2

% of binding to wild-type peptide [1]: 118% | % of binding to wild-type peptide [2]: 11.1% | % of binding to wild-type peptide [3]: 0% | % of binding to wild-type peptide [4]: 61.6% | % of binding to wild-type peptide [5]: 0% | % of binding to wild-type peptide [6]: 0% | % of binding to wild-type peptide [7]: 0.27% | % of binding to wild-type peptide [8]: 0.12% | % of binding to wild-type peptide [9]: 242% | % of binding to wild-type peptide [10]: 18.6% | % of binding to wild-type peptide [11]: 67.7% | % of binding to wild-type peptide [12]: 21% | % of binding to wild-type peptide [13]: 0% | % of binding to wild-type peptide [14]: 0.74% | % of binding to wild-type peptide [15]: 5.33% | % of binding to wild-type peptide [16]: 50.7% | % of binding to wild-type peptide [17]: 28.1% | % of binding to wild-type peptide [18]: 19.6% | % of binding to wild-type peptide [19]: 2.04% | % of binding to wild-type peptide [20]: 48.6% | % of binding to wild-type peptide [21]: 0% | % of binding to wild-type peptide [22]: 93% | % of binding to wild-type peptide [23]: 38.8% | % of binding to wild-type peptide [24]: 0% | % of binding to wild-type peptide [25]: 6.27% | % of binding to wild-type peptide [26]: 0% | % of binding to wild-type peptide [27]: 76% | % of binding to wild-type peptide [28]: 0% | % of binding to wild-type peptide [29]: 27.5% | % of binding to wild-type peptide [30]: 9.47%
B1: anti-ApoC3 antibody 14C7 (antibody, V domains shown)
VH: QVQVQESGPGLVKPSQTLSLTCTVSGGSITTNSYYWSWIRQPPGKGLEWMGAIDYSGDTYYSPSLKSRTSISRDTSKNQFTLQLTSVTPEDTAVYYCVSRIPTGEYWGQGTQVTVSS
VL: QTVVTQEPSLSVSPGGTVTLTCGLNSGSVTSSNYPDWYQQTPGQAPRLLIYNTNSRHSGVPSRFSGSISGNKAALTITGAQPEDEADYYCALYMGSDSVVFGGGTHLTVL
notes: it was detected with goat anti-human IgG (Fc); also called mAb 14C7; llama antibody 14C7
